Earlier results on 3 substances are cited in article PMC8567204.

In general, Kd refers to the concentration at which binding is half-saturated.

Some targets named below: Fyn (native) SH3 (UniProt P06241); Fyn (unfolded) SH3 (UniProt P06241); HscB (Escherichia coli) (UniProt P0A6L9).
For data set [1], the target named is Trigger factor (Escherichia coli) (UniProt P0A850).
Data set [2] addresses HscA (Escherichia coli) (UniProt P0A6Z1).
For data set [3] the target is unchanged. The source holds these as a separate data set.

Read-outs that look alike come from different tables or passages of the source.

Sequence of apo-IscU (P0ACD4 whole entry): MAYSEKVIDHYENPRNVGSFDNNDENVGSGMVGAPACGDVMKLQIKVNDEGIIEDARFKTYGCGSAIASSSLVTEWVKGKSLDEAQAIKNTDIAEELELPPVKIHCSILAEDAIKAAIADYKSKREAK
Sequence of HscA (Escherichia coli) (P0A6Z1 whole entry): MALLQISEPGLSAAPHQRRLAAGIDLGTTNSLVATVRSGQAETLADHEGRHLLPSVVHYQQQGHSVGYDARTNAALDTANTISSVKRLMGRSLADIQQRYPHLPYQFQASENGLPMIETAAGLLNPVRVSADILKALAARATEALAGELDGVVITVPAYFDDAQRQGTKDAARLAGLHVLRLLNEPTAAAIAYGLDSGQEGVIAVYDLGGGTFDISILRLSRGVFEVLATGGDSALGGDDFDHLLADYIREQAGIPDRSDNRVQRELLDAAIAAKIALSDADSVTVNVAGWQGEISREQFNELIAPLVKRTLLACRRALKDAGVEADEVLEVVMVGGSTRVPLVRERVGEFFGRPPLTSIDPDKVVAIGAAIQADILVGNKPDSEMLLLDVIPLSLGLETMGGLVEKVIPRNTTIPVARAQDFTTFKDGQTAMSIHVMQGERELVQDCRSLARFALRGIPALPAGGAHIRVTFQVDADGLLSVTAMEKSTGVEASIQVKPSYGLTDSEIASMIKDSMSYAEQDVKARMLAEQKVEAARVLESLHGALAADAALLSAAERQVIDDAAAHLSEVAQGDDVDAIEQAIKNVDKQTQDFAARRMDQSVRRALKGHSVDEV
Sequence of Spy (P77754 24-161): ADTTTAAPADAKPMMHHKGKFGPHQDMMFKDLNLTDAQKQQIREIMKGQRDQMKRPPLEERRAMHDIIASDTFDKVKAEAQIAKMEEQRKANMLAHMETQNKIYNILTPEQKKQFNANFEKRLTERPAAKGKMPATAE
Sequence of HscB (Escherichia coli) (P0A6L9 whole entry): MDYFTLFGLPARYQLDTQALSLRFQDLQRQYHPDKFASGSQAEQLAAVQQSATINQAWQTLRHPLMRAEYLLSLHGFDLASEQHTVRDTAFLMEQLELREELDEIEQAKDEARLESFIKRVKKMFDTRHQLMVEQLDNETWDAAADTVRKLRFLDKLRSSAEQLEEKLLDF
Sequence of Trigger factor (P0A850 whole entry): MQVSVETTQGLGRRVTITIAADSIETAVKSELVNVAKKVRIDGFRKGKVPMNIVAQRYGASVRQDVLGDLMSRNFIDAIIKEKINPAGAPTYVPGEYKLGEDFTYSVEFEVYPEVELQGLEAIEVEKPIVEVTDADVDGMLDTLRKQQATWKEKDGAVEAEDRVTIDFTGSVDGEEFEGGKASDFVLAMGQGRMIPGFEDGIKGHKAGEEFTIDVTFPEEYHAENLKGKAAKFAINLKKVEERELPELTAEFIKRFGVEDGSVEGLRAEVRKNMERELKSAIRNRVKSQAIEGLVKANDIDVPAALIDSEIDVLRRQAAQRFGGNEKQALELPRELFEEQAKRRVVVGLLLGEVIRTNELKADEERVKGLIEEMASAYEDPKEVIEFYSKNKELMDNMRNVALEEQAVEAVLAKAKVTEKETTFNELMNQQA
Sequence of Fyn (unfolded) SH3 (P06241 82-143): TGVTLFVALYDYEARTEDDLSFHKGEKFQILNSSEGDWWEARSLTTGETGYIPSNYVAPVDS
Sequence of Fyn (native) SH3 (P06241 82-143): as above

On to Trigger factor (from UniProt P0A850), for which the dissociation constant Kd in data set [1] is 2 µM.
In the case of Spy (from UniProt P77754), the results for the Kd with Fyn (native) SH3 and with Fyn (unfolded) SH3 were 50 µM and 3 µM, respectively.
In the case of apo-IscU (from UniProt P0ACD4), the dissociation constant (Kd) is 9 µM with HscA (Escherichia coli) [2], 37 µM with HscA (Escherichia coli) [3] and 11 µM with HscB (Escherichia coli).
